This assay concerns the target Gal4-16.4.1 fusion protein (pBIND-16.4.1) (human). Kind of assay: two-hybrid.

The substance “VP16-hCRM1 fusion protein (pACT-hCRM1) (from UniProt O14980 1-1071) (natural protein)” had an other of 41 fold.
On to “VP16-Rev fusion protein (pACT-Rev) (from UniProt P04618 1-116) (natural protein)”, for which the fold induction of luciferase activity turned out to be 11 fold.
